{"source": "paper PMC3989047", "about": "“Purification and characterization of tyrosinase from walnut leaves (Juglans regia)” (Phytochemistry, 2014)", "proteins": {"B1": {"name": "jrPPO1(Asp101 → Arg445), Juglans regia tyrosinase (form 2) (Juglans regia) (protein)", "chain": "DPVSAPELTLCSEADLPAGALPVNCCPPTSKKIKDFVLPSQNTPLRVRPAAHLVDNDYIAKYNKGIELMKSLPADDPRSFTQQANVHCAYCDGAYTQVGFPDLSLQVHECWLFFPFHRYYVYFFEKILGKLIGDPTFALPFWNWDSPPGMQLPSLYAVSNSAIYDPLRNANHQPPTIIDLDYGETSESTTTTDQVPSNLKIMYRQMVSGAKNPTLFFGSPYRAGDEPDPGAGTIESTPHNNIHLWTGDDTQPNIENMGNFYSAGRDPIFFAHHSNVDRMWTIWKTLGGKRKDITDPDWLNSSFFFYDENADPVRVKVKDCVDNTKLRYVYQDVEIPWLKTKPTPR", "notes": "native, purified from walnut leaves; 39,047 Da"}}, "key": {"purified protein [1]": {"substrate": "N[C@@H](Cc1ccc(O)c(O)c1)C(=O)O", "test": "purified protein", "type": "biochemical, Juglans regia", "conditions": "50 mM sodium phosphate pH 6.5, five substrate concentrations 0.29-1.96 mM"}, "purified protein [2]": {"substrate": "N[C@@H](Cc1ccc(O)cc1)C(=O)O", "test": "purified protein", "type": "biochemical, Juglans regia", "conditions": "50 mM sodium phosphate pH 6.5, five substrate concentrations 0.29-1.96 mM"}}, "data": [{"protein": "B1", "values": [{"measurement": "Km", "setting": "purified protein [1]", "result": 8.8, "unit": "mM"}, {"measurement": "Vmax", "setting": "purified protein [1]", "result": 60, "unit": "µM/min"}, {"measurement": "Vmax/Km", "setting": "purified protein [1]", "result": 0.01, "unit": "min⁻¹"}, {"measurement": "kcat", "setting": "purified protein [1]", "result": 199, "unit": "s⁻¹"}, {"measurement": "kcat/Km", "setting": "purified protein [1]", "result": 22800, "unit": "M⁻¹ s⁻¹"}, {"measurement": "Km", "setting": "purified protein [2]", "result": 1.9, "unit": "mM"}, {"measurement": "Vmax", "setting": "purified protein [2]", "result": 80, "unit": "µM/min"}, {"measurement": "Vmax/Km", "setting": "purified protein [2]", "result": 0.04, "unit": "min⁻¹"}, {"measurement": "kcat", "setting": "purified protein [2]", "result": 20.8, "unit": "s⁻¹"}, {"measurement": "kcat/Km", "setting": "purified protein [2]", "result": 10900, "unit": "M⁻¹ s⁻¹"}]}]}
